Experimental data: the DeepSol protein solubility set

Test: soluble on expression in E. coli; label from the status in PepcDB or PDB records

Row | Sequence | soluble on expression in E. coli
1 | MRGSHHHHHHGMASMTGGQQMGRDLYDDDDKDHPFTMADQAPFDTDVNTLTRFVMEEGRKARGTGELTQLLNSLCTAVKAISSAVRKAGIAHLYGIAGSTNVTGDQVKKLDVLSNDLVMNMLKSSFATCVLVSEEDKHAIIVEPEKRGKYVVCFDPLDGSSNIDCLVSVGTIFGIYRKKSTDEPSEKDALQPGRNLVAAGYALYGSATMLVLAMDCGVNCFMLDPAIGEFILVDKDVKIKKKGKIYSLNEGYAKDFDPAVTEYIQRKKFPPDNSAPYGARYVGSMVADVHRTLVYGGIFLYPANKKSPNGKLRLLYECNPMAYVMEKAGGMATTGKEAVLDVIPTDIHQRAPVILGSPDDVLEFLKVYEKHSAQ | soluble
2 | MAEVVVIGAGLSGTLMAYELLPQLGKDDRLSVISQGAIYHFVPSNPWVAVGWRKRDEIEIDLVDIMKRKGVRLLTQGAKRLHPTENRVELSDGTSINYDYLVVATGPELAFDEIPGLGPQGHTQSICHVDHASHAKDAFEKLAARPGPVVIGAVQGASCFGPAYEFLFILETELRRRKLRDQVPMTFVTSEPYVGHLGLDGVGDTKGLLEGEMREKHVKWITNARVKGVEAGKMVVEELGEGGAVHKTHELPFAYSMMLPAFRGVEAVRGIDKLTNPRGFVIVDKHQRNPAFPNVFAVGVCVAIAPVGATPVSVGVPKTGFMIESMVTATALNIGALLRGKEPSAQPTWNAICLADFGDSGVAFLAQPQIPPRNVNWSSKGEWVHYAKVAFEKYFLRKMRRGESEPFYERFLLDKLNIAKIKEVRTGTLEHHHHHH | soluble
3 | AIASKKKGLSFDDKRTRMLEIFTESKTFFTLKELEKVAPKQKGIVLPSVKEVLQSLVDDDVVSSDKCGTQTVYWCLPSQAVQKKRCRIASLTEHLQAKYALRQQLFQRRDELRNSHQDTEERTHFIEQINELESKLKLIQEQLDIYKESDPEVLAEIRNVSHIAWEATNRWTDNIFSIRSWVTSKFGLPSSEFDKNFGLSEDFDYI | soluble
4 | MKVLLANPRGFCAGVDRAIEIVKRTIDMLGTPIYVRHEVVHNRFVVDDLKQRGAIFVEELHQVPDGATVIFSAHGVSQAVRRQAAQRGLKVFDATCPLVTKVHLDVARHCRTGRDMILIGHAGHPEVEGTMGQWDQERGTGRIYLVENIDDVATLHVAQPHHLAYTTQTTLSVDDTRNIIDALRQRFPTIQGPKNNDICYATQNRQDAVRELARECDLVLVVGSPNSSNSNRLSELAQREGVASYLIDSAAEIDPAWVIDKHHIGVTAGASAPQVLVDGVLARLYELGAT | not soluble
5 | MRFSILGLAFASVLSGCVSTTPTTSALSSTDVTTFYDYQLHSPSGNALALQNLPDELKNADVILVGEWHTHAGIHRFQTDLLRQLSSGERRIALSMEQVTRDKQSVLDAYLKGEIGEQYFMSQSNAWPNYESDYRPLVEFAKQANLPVIAANTPKYIVRCIGRQGVDYLNKLDDEERSFVAENVNTANSPYKEKFMASMHHGKPEQTEKQYAAQVTWDETMAESIVKYLAQNPNAQVVHVAGKFHTEAGLGTAASILQRNPELKVVVVNPTSEISTNSPDYQLEVLEPPVRFVQDANRMAAYKHLSTRNDDLQCKLEHHHHHH | soluble
6 | EKITILADAIPELHVEEANDKVMGSIDWEAALKQSAGKEDLAQEMLQMLVDFIPEVNEWIDKALESDISEEELCHYIHKLHGSSSYCGVPRLKQLCNLIETSLRQHQTISDIEPELFELQDEMEKVTKDANLLLSN | not soluble
7 | MGSDKIHHHHHHMDIYEKYGLKPVINADGKMTILGVSQVSDQVAAAQKQGAQNFFEMAELTVQTGRYLADLIGSEDALIVNSASAGIAQVLAGIIGRGNAYHVTHPYTTQITQREVIMPLGHDVDYGAPVDVMLAVAGAQPVLAGYANRCTAEQLAMQITPQTVAILYIKSHHTVQKSMLTIADALQVAHDHHLPLVLDAAAEGDLRRYLQLGVDVVIYSGAKAISGPASGLVLGRQTYVEWARQQNYGIGRAMKIGKENILGLVAAVEQYLTTGPESGASMKARLAPFIAELQTLPNVQVEMVQDGAGRDIFRASVRIAEAAKICQALRQGRPAIYPREYRVNEGLIEFDIRALTSAEMTQIVERLRTIIEEESTCN | not soluble
